# Source: patent US20240336657A1, “G-ALPHA-S PEPTIDE INHIBITORS AND USES THEREOF” (The Regents of the University of California, priority 2021, published 2024)
# Positions of bridges follow the written chain, without caps; N, C: chain ends. Non-standard residues stand in square brackets, D forms with d.
# B1: GD20-F10L (peptide)
# peptide: {CH2CO}-[dY]LITFRQWALNLPCG-NH2
# modifications: thioether N-14
# SMILES: CC[C@H](C)[C@@H]1NC(=O)[C@H](CC(C)C)NC(=O)[C@@H](Cc2ccc(O)cc2)NC(=O)CSC[C@@H](C(=O)NCC(N)=O)NC(=O)[C@@H]2CCCN2C(=O)[C@H](CC(C)C)NC(=O)[C@H](CC(N)=O)NC(=O)[C@H](CC(C)C)NC(=O)[C@H](C)NC(=O)[C@H](Cc2c[nH]c3ccccc23)NC(=O)[C@H](CCC(N)=O)NC(=O)[C@H](CCCNC(=N)N)NC(=O)[C@H](Cc2ccccc2)NC(=O)[C@H]([C@@H](C)O)NC1=O
# notes: Single substitution F10L of GD20; also called cell permeable GD20 analog F10L
# B2: GN15 (peptide)
# peptide: {CH2CO}-[dY]KYWDFDNFQELYCG-NH2
# modifications: thioether N-14
# SMILES: CC(C)C[C@@H]1NC(=O)[C@H](CCC(=O)O)NC(=O)[C@H](CCC(N)=O)NC(=O)[C@H](Cc2ccccc2)NC(=O)[C@H](CC(N)=O)NC(=O)[C@H](CC(=O)O)NC(=O)[C@H](Cc2ccccc2)NC(=O)[C@H](CC(=O)O)NC(=O)[C@H](Cc2c[nH]c3ccccc23)NC(=O)[C@H](Cc2ccc(O)cc2)NC(=O)[C@H](CCCCN)NC(=O)[C@@H](Cc2ccc(O)cc2)NC(=O)CSC[C@@H](C(=O)NCC(N)=O)NC(=O)[C@H](Cc2ccc(O)cc2)NC1=O
# B3: GN7 (peptide)
# peptide: {CH2CO}-[dY]SWPNQFDWFIELCG-NH2
# modifications: thioether N-14
# SMILES: CC[C@H](C)[C@@H]1NC(=O)[C@H](Cc2ccccc2)NC(=O)[C@H](Cc2c[nH]c3ccccc23)NC(=O)[C@H](CC(=O)O)NC(=O)[C@H](Cc2ccccc2)NC(=O)[C@H](CCC(N)=O)NC(=O)[C@H](CC(N)=O)NC(=O)[C@@H]2CCCN2C(=O)[C@H](Cc2c[nH]c3ccccc23)NC(=O)[C@H](CO)NC(=O)[C@@H](Cc2ccc(O)cc2)NC(=O)CSC[C@@H](C(=O)NCC(N)=O)NC(=O)[C@H](CC(C)C)NC(=O)[C@H](CCC(=O)O)NC1=O
# B4: GN8 (peptide)
# peptide: {CH2CO}-[dY]QYTYPYLVIDWTCG-NH2
# modifications: thioether N-14
# SMILES: CC[C@H](C)[C@@H]1NC(=O)[C@H](C(C)C)NC(=O)[C@H](CC(C)C)NC(=O)[C@H](Cc2ccc(O)cc2)NC(=O)[C@@H]2CCCN2C(=O)[C@H](Cc2ccc(O)cc2)NC(=O)[C@H]([C@@H](C)O)NC(=O)[C@H](Cc2ccc(O)cc2)NC(=O)[C@H](CCC(N)=O)NC(=O)[C@@H](Cc2ccc(O)cc2)NC(=O)CSC[C@@H](C(=O)NCC(N)=O)NC(=O)[C@H]([C@@H](C)O)NC(=O)[C@H](Cc2c[nH]c3ccccc23)NC(=O)[C@H](CC(=O)O)NC1=O
# B5: GN3 (peptide)
# peptide: {CH2CO}-[dY]NWSNQFDWFLDLCG-NH2
# modifications: thioether N-14
# SMILES: CC(C)C[C@@H]1NC(=O)[C@H](CC(=O)O)NC(=O)[C@H](CC(C)C)NC(=O)[C@H](Cc2ccccc2)NC(=O)[C@H](Cc2c[nH]c3ccccc23)NC(=O)[C@H](CC(=O)O)NC(=O)[C@H](Cc2ccccc2)NC(=O)[C@H](CCC(N)=O)NC(=O)[C@H](CC(N)=O)NC(=O)[C@H](CO)NC(=O)[C@H](Cc2c[nH]c3ccccc23)NC(=O)[C@H](CC(N)=O)NC(=O)[C@@H](Cc2ccc(O)cc2)NC(=O)CSC[C@@H](C(=O)NCC(N)=O)NC1=O
# B6: GN11 (peptide)
# peptide: {CH2CO}-[dY]LTNWGVYWDQYWCG-NH2
# modifications: thioether N-14
# SMILES: CC(C)C[C@@H]1NC(=O)[C@@H](Cc2ccc(O)cc2)NC(=O)CSC[C@@H](C(=O)NCC(N)=O)NC(=O)[C@H](Cc2c[nH]c3ccccc23)NC(=O)[C@H](Cc2ccc(O)cc2)NC(=O)[C@H](CCC(N)=O)NC(=O)[C@H](CC(=O)O)NC(=O)[C@H](Cc2c[nH]c3ccccc23)NC(=O)[C@H](Cc2ccc(O)cc2)NC(=O)[C@H](C(C)C)NC(=O)CNC(=O)[C@H](Cc2c[nH]c3ccccc23)NC(=O)[C@H](CC(N)=O)NC(=O)[C@H]([C@@H](C)O)NC1=O
# B7: GN1 (peptide)
# peptide: {CH2CO}-[dY]QFIEVWPFYLPCG-NH2
# modifications: thioether N-13
# SMILES: CC[C@H](C)[C@@H]1NC(=O)[C@H](Cc2ccccc2)NC(=O)[C@H](CCC(N)=O)NC(=O)[C@@H](Cc2ccc(O)cc2)NC(=O)CSC[C@@H](C(=O)NCC(N)=O)NC(=O)[C@@H]2CCCN2C(=O)[C@H](CC(C)C)NC(=O)[C@H](Cc2ccc(O)cc2)NC(=O)[C@H](Cc2ccccc2)NC(=O)[C@@H]2CCCN2C(=O)[C@H](Cc2c[nH]c3ccccc23)NC(=O)[C@H](C(C)C)NC(=O)[C@H](CCC(=O)O)NC1=O
# notes: the number is its rank in the selection
# B8: GN6 (peptide)
# peptide: Ac-[dY]CFYEVWPYYLPCG-NH2
# modifications: thioether (positions not given here); also: thioether partner Cys2 or Cys13 not settled
# Molecular target: T1, Biotinylated Avi-tagged WT Gαs (residues 7-380 of the short isoform of human Gαs), GDP-bound (human, UniProt P63092 7-394, biotin on the Avi tag (BirA))
# T1 construct: Loaded with GDP; Same polypeptide as m7, other nucleotide state; also called biotinylated Gαs WT
# Test: TR-FRET competition: biotinylated GDP-bound Gαs WT against His-Gβγ(C68S)
# Experimental: (§1) Biotinylated avi-Gαs (6-end, WT) and avi-Gαi (FL, WT) were diluted to 32 nM (8×) using assay buffer (1× PBS 7.4, 2 mM DTT, 0.1% BSA, 2 mM MgCl₂, 0.05% Tween plus 0.5 mM GDP), followed by mixing with a same volume of 8× streptavidin XL665 stock (32 nM in the assay buffer). 8× His-Gβ/γ (C68S) stock (16 nM) and 8× anti-6His-Tb cryptate stock (0.4 μg/mL) were added into the Gα/XL665 mixtures. Finally, 2× stocks of cyclic peptides were added with the protein mixtures. After incubation at room temperature for 2 hour at room temperature. […] FRET Signal was calculated as the ratio of [Read B]/[Read A].
# T1 sequence (P63092 other isoform, or with tags, fused parts or gaps limits assumed): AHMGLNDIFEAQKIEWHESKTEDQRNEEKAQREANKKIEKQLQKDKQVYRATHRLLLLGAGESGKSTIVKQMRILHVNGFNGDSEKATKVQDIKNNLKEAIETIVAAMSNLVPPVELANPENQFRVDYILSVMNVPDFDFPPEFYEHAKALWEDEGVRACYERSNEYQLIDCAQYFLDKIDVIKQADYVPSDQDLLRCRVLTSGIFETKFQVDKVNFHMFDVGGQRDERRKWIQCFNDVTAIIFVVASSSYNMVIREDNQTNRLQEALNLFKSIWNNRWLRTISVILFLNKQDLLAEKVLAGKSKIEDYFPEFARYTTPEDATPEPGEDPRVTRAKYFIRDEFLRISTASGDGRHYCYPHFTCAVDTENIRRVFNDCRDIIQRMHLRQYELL
row,Binder,IC50 [nM]
1,B1,14

# Molecular target: T1, Biotinylated Avi-tagged WT Gαs …
# Test: TR-FRET competition: biotinylated Gαs or Gαi (GDP) against His-Gβγ(C68S)
# Experimental: as §1
row,Binder,fold selectivity for Gαs over Gαi [fold]
1,B1,100

# Molecular target: T2, Biotinylated His/Avi-tagged Gαs used in the RaPID selection, GppNHp-bound (human, UniProt P63092 7-394, biotin on the Avi tag (BirA co-expressed))
# T2 construct: Immobilized on streptavidin magnetic beads
# Test: RaPID comparison selection: peptide-mRNA-cDNA complexes on Gαs-immobilized streptavidin beads, qPCR and sequencing
# T2 sequence (P63092 other isoform, or with tags, fused parts or gaps limits assumed): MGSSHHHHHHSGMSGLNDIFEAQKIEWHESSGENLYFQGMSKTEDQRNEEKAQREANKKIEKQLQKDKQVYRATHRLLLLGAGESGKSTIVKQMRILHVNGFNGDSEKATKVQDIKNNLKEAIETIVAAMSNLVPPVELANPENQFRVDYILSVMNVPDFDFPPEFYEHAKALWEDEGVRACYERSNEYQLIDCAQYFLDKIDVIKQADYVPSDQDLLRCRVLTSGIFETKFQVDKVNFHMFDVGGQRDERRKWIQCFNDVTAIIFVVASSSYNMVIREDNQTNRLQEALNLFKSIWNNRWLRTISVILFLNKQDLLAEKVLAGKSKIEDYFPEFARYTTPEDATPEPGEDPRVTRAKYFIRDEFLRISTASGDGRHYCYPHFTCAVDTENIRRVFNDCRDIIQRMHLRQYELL
row,Binder,fold selectivity for GppNHp-bound over GDP-bound Gαs [fold]
1,B2,> 100
2,B3,> 100
3,B4,> 100
4,B5,> 100
5,B6,> 100
6,B7,> 100
7,B8,> 100
